Results on 1 molecule are retold here after patent publication US7011975 (UNIVERSITY OF GEORGIA RESEARCH FOUNDATION, dated 2006).

This test concerns the target Cry1Ac toxin (Bacillus thuringiensis, UniProt P05068 29-623, rhodamine label (5(6)-TAMRA SE) in the cell-staining assay; coupled to CNBr-activated Sepharose 4B in the affinity assay). The experiment in a line: rhodamine-labeled toxin staining of fixed Sf21 cells, confocal microscopy.

B1: Manduca sexta 120 kDa aminopeptidase N APN1a expressed in Sf21 cells transfected with pHSP120 (receptor)
chain: PSYRLPTTTRPRHYAVTLTPYFDVVPAGVSSLTTFSFDGEVTIYISPTQANVNEIVLHCNDLTIQSLRVTYVSGNSEVDITATGQTFTCEMPYSFLRIRTSTPLVMNQEYIIRSTFRGNLQTNMRGFYRSWYVDRTGKRWMATTQLQPGHARQAFPCYDEPGFKATFDITMNREADFSPTISNMPIRATTTLTNGRISETFFTTPLTSTYLLAFIVSHYQVISNNNNAARPFRIYARNNVGSQGDWSLEMGEKLLLAMENYTAIPYYTMAQNIDMKQAAIPDFSAGAMENWGLLTYREALILYDPLNSNHHYRQRVANIVSHEIAHMWFGNLVTCAWWDNLWLNEGFARFYQYYLTATVDPELGYEIRFIPEQLQVAMFSDSVDSAHALTDTSVNDPVAVSAHFSTITYARGAAILRMTQHLLSYDTFVKGLRQYLRARQFDVAEPYHLFSALDAAAAEDNALAAYTGITIDAYFRTWSEKAGHPLLSVTVDHETGRMTLVQARWERNTGVSRFPGLWHIPITWTRAGAPDFENLKPSQVMTGQSLVIDRGTRGQEWVIFNKQVSGFYRVNYDNTTWGLITRALRSANRTVIHELSRSQIVDDVFQLARSGVMSYQRALNILSYLRFEDAYAPWLSAISGFNWVIRRFAHDAANLQTLQNQIIGLSEAVVARLGFTEVSGGTYMTDLQRLHVMQFLCNVGHQQCIDTGRQNFLNWRNGSFIPANMRPWVYCTGLRYGSAEDFNYFWNRYIVEDLSNEKVVMLEAAGCTRDQASLEKFLNAIVSGNDDVRPQDHSSALSSAITSNDVNTMRAFDWLTKNVDQITRTLGSITSPLNTITSRLLTEAQMTQVQTWLDANRNTIGAAYNTGVNGIATSRANLQWSANRMSEFLRFFETGFVDDVPSEATTVAPPAETTVTPSTFPPTEAPATTPAPG
modifications: GPI anchor at the C-terminus; heterogeneously glycosylated (residues not stated)
notes: also called expressed APN; expressed 120 kDa APN
Turning to B1, the binding result is reported as “no binding (tested: 1 µg/ml)”.
